Measured values taken from US5362864, “Trans-activating factor-1” (The Trustees of the Rockefeller University).

Columns and labels:
[1] = molecular target: T1, truncated TAF-1 (p5a product from Met-22) (Nicotiana tabacum, UniProt Q99142 SEQ:1-244); assay: competition; 60 ng gave about 50% competition; increased affinity also in direct EMSA; details: tags: expressed from pSK(-) lacZ promoter in E. coli, ammonium sulfate fraction; chain copies: 2 (inferred)
T1 sequence: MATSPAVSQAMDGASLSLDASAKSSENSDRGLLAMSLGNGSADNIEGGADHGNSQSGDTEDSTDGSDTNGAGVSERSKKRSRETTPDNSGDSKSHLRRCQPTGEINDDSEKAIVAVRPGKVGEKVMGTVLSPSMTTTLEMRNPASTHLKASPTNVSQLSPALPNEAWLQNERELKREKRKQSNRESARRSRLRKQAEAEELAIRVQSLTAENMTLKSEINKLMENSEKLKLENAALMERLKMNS
Excerpt: (§1) FIG. 4A. TAF-1 preferentially binds to a perfect palindromic sequence. Tetramers of WT motif I, the mutant M1, and the perfect palindrome (PA), […], (SEQ. ID NO: 9) were used as probes in gel mobility shift-assays with E. coli extracts containing the truncated TAF-1. F, free probe; NC, non-specific complex. The specific complexes, indicated with arrowheads, have a slower mobility as compared to the non-specific complex. FIG. 4B. Relative binding affinities of TAF-1 to motif I (WT) and related sequences. WT motif I tetramer was used as a probe in gel mobility shift assays with E. coli extracts containing the truncated TAF-1. Different concentrations of tetramers of mutants M1 to M5, as well as the tetramer of the perfect palindromic sequence (PA) were tested for their ability to compete with the WT sequence for TAF-1. For WT, PA, M1 and M5, the concentrations that gave approximately 50% competition were used in the experiments shown here. Higher concentrations were used for mutants M2, M3 and M4. Comp., Competitor. FIG. 4C. Nucleotide sequences of WT (SEQ. ID NO: 11), mutants M1 to M5 (SEQ. ID NOS: 10, 13, 14, 15 and 12), and the perfect palindrome, PA (SEQ. ID NO: 9). In this figure, the WT motif I of the tetramer is shown with the TACGTG hexanucleotide as the core sequence. The 5' nucleotide G of the motif is derived from the 3' nucleotide of the preceding motif in the tetramer. […]

[2] = molecular target: T1, truncated TAF-1 (p5a product from …); assay: competition; self competition; direct EMSA complexes in FIG. 2D; poly(dI-dC); details: tags: expressed from pSK(-) lacZ promoter in E. coli, ammonium sulfate fraction; chain copies: 2 (inferred); label: fill-in labelled
Excerpt: as §1

[3] = molecular target: T1, truncated TAF-1 (p5a product from …); assay: competition; 3 ng gave about 50% competition against WT probe; 200 ng needed for WT; direct EMSA also stronger than WT (FIG. 4A); details: tags: expressed from pSK(-) lacZ promoter in E. coli, ammonium sulfate fraction; chain copies: 2 (inferred)
Excerpt: as §1

B1: M1 tetramer (dsDNA)
DNA 1: CAACGTGGCGCAACGTGGCGCAACGTGGCGCAACGTGGCG
DNA 2: CGCCACGTTGCGCCACGTTGCGCCACGTTGCGCCACGTTG
- binding signal [1]: 3.3 fold vs WT

B2: motif I WT tetramer (dsDNA)
DNA 1: GTACGTGGCGGTACGTGGCGGTACGTGGCGGTACGTGGCG
DNA 2: CGCCACGTACCGCCACGTACCGCCACGTACCGCCACGTAC
- IC50 [2]: ~200 ng

B3: PA perfect palindrome (G-box) tetramer (dsDNA)
DNA 1: GCCACGTGGCGCCACGTGGCGCCACGTGGCGCCACGTGGC
DNA 2: B3 DNA 1
- binding signal [3]: ~66 fold vs WT
